Here are results for 56 variants from the RNAGym collection of RNA variant scans (doi:10.7554/elife.90254).

B1: LINE1-mini (parent)
chain: GGCAGAGCUCAACACAGCGUGGCAAAGUGGCUGUGGCUAGACUGCC

In the series the parent is B1. Nature of the series: self-cleavage, relative activity (ratio to wild type); higher = more cleavage; in vitro, sequencing; the parent is a self-cleaving ribozyme.
For the variant GGCAGACCCCAACACAGCGUGGCAAAGUGGCUGUGGCUAGACUGCC [G7C U9C], the self-cleavage came out at 0.03.

For the variant GGCAGAUCUGAACACAGCGUGGCAAAGUGGCUGUGGCUAGACUGCC [G7U C10G], the self-cleavage amounted to 0.03.

On to GGCAGAUCUAAACACAGCGUGGCAAAGUGGCUGUGGCUAGACUGCC [G7U C10A], for which the self-cleavage came out at 0.04.

As to GGCAGAUCUUAACACAGCGUGGCAAAGUGGCUGUGGCUAGACUGCC [G7U C10U], the self-cleavage was determined as 0.04.

As for GGCAGAUCUCAACACAGCGUGGCAAAUUGGCUGUGGCUAGACUGCC [G7U G27U], the self-cleavage was 0.08.

Regarding GGCAGAUCUCAACACAGCGUGGCAAAAUGGCUGUGGCUAGACUGCC [G7U G27A], the self-cleavage was 0.07.

For GGCAGAUCUCAACACAGCGUGGCAAACUGGCUGUGGCUAGACUGCC [G7U G27C], the self-cleavage was 0.1.

Turning to GGCAGAUCUCAUCACAGCGUGGCAAAGUGGCUGUGGCUAGACUGCC [G7U A12U], the self-cleavage came out at 0.07.

With GGCAGAUCUCAGCACAGCGUGGCAAAGUGGCUGUGGCUAGACUGCC [G7U A12G], the self-cleavage turned out to be 0.04.

On to GGCAGAUCUCACCACAGCGUGGCAAAGUGGCUGUGGCUAGACUGCC [G7U A12C], for which the self-cleavage was determined as 0.02.

With GGCAGAUCUCAACACGGCGUGGCAAAGUGGCUGUGGCUAGACUGCC [G7U A16G], the self-cleavage is 0.16.

Consider GGCAGAUCUCAACACUGCGUGGCAAAGUGGCUGUGGCUAGACUGCC [G7U A16U], for which the self-cleavage was determined as 0.12.

Regarding GGCAGAUCUCAACACCGCGUGGCAAAGUGGCUGUGGCUAGACUGCC [G7U A16C], the self-cleavage worked out at 0.09.

On to GGCAGAUCUCAACUCAGCGUGGCAAAGUGGCUGUGGCUAGACUGCC [G7U A14U], for which the self-cleavage was 0.11.

With GGCAGAUCUCAACCCAGCGUGGCAAAGUGGCUGUGGCUAGACUGCC [G7U A14C], the self-cleavage turned out to be 0.09.

GGCAGAUCUCAACGCAGCGUGGCAAAGUGGCUGUGGCUAGACUGCC [G7U A14G]: the self-cleavage turned out to be 0.15.

In the case of GGCAGAUCUCAACACAGCGUGGCAAAGUGGCUGUGGAUAGACUGCC [G7U C37A], the self-cleavage was found to be 0.05.

As to GGCAGAUCUCAACACAGCGUGGCAAAGUGGCUGUGGUUAGACUGCC [G7U C37U], the self-cleavage is 0.03.

For GGCAGAUCUCAACACAGCGUGGCAAAGUGGCUGUGGGUAGACUGCC [G7U C37G], the self-cleavage stood at 0.01.

With GGCAGACCUCAACACAGCGUGGCAAAGUGGCUGUGCCUAGACUGCC [G7C G36C], the self-cleavage is 0.1.

Consider GGCAGACCUCAACACAGCGUGGCAAAGUGGCUGUGACUAGACUGCC [G7C G36A], for which the self-cleavage stood at 0.2.

For GGCAGACCUCAACACAGCGUGGCAAAGUGGCUGUGUCUAGACUGCC [G7C G36U], the self-cleavage was 0.1.

In the case of GGCAGAUCUCAACACAGCAUGGCAAAGUGGCUGUGGCUAGACUGCC [G7U G19A], the self-cleavage was 0.07.

Take GGCAGAUCUCAACACAGCCUGGCAAAGUGGCUGUGGCUAGACUGCC [G7U G19C]: the self-cleavage amounted to 0.05.

As for GGCAGAUCUCAACACAGCUUGGCAAAGUGGCUGUGGCUAGACUGCC [G7U G19U], the self-cleavage came to 0.05.

In the case of GGCAGAUCUCAAAACAGCGUGGCAAAGUGGCUGUGGCUAGACUGCC [G7U C13A], the self-cleavage was found to be 0.14.

As to GGCAGAUCUCAAGACAGCGUGGCAAAGUGGCUGUGGCUAGACUGCC [G7U C13G], the self-cleavage is 0.08.

For GGCAGAUCUCAAUACAGCGUGGCAAAGUGGCUGUGGCUAGACUGCC [G7U C13U], the self-cleavage is 0.15.

For the variant GGCAGACCUCAACACAGCGUGGCAAAGUGGCUGUGGCUAGACUCCC [G7C G44C], the self-cleavage was 0.18.

On to GGCAGACCUCAACACAGCGUGGCAAAGUGGCUGUGGCUAGACUACC [G7C G44A], for which the self-cleavage is 0.09.

As to GGCAGACCUCAACACAGCGUGGCAAAGUGGCUGUGGCUAGACUUCC [G7C G44U], the self-cleavage was 0.15.

For the variant GGCAGAUCUCAACACAGCGUGGCAAAGUGGCUGUGGCUAGCCUGCC [G7U A41C], the self-cleavage was 0.24.

With GGCAGAUCUCAACACAGCGUGGCAAAGUGGCUGUGGCUAGGCUGCC [G7U A41G], the self-cleavage is 0.09.

On to GGCAGAUCUCAACACAGCGUGGCAAAGUGGCUGUGGCUAGUCUGCC [G7U A41U], for which the self-cleavage worked out at 0.21.

Consider GGCAGAUCUCAACACAGCGUGGCAAAGUGGCUGUGGCUAGAAUGCC [G7U C42A], for which the self-cleavage turned out to be 0.06.

Consider GGCAGAUCUCAACACAGCGUGGCAAAGUGGCUGUGGCUAGAGUGCC [G7U C42G], for which the self-cleavage was 0.12.

Turning to GGCAGAUCUCAACACAGCGUGGCAAAGUGGCUGUGGCUAGAUUGCC [G7U C42U], the self-cleavage was 0.12.

Regarding GGCAGAUCUCAACACAGCGUGGCAGAGUGGCUGUGGCUAGACUGCC [G7U A25G], the self-cleavage is 0.1.

On to GGCAGAUCUCAACACAGCGUGGCAUAGUGGCUGUGGCUAGACUGCC [G7U A25U], for which the self-cleavage was determined as 0.1.

In the case of GGCAGAUCUCAACACAGCGUGGCACAGUGGCUGUGGCUAGACUGCC [G7U A25C], the self-cleavage was 0.06.

On to GGCAGAUCUCAACACAGCGUGGCAAAGUGGCUGUGGCUAGACUGCC [G7U], for which the self-cleavage turned out to be 0.1.

Take GGCAGAUUUCAACACAGCGUGGCAAAGUGGCUGUGGCUAGACUGCC [G7U C8U]: the self-cleavage was 0.34.

Turning to GGCAGAUGUCAACACAGCGUGGCAAAGUGGCUGUGGCUAGACUGCC [G7U C8G], the self-cleavage is 0.32.

Consider GGCAGAUAUCAACACAGCGUGGCAAAGUGGCUGUGGCUAGACUGCC [G7U C8A], for which the self-cleavage came out at 0.3.

Consider GGCAGACCUCAACACAGCGUGGCAAAGUGGCCGUGGCUAGACUGCC [G7C U32C], for which the self-cleavage stood at 0.07.

Take GGCAGACCUCAACACAGCGUGGCAAAGUGGCGGUGGCUAGACUGCC [G7C U32G]: the self-cleavage was determined as 0.05.

As for GGCAGACCUCAACACAGCGUGGCAAAGUGGCAGUGGCUAGACUGCC [G7C U32A], the self-cleavage turned out to be 0.05.

GGCAGACCUCAACACAGCGUGGCAAAGUGGCUGGGGCUAGACUGCC [G7C U34G]: the self-cleavage came to 0.02.

Turning to GGCAGACCUCAACACAGCGUGGCAAAGUGGCUGCGGCUAGACUGCC [G7C U34C], the self-cleavage is 0.06.

GGCAGACCUCAACACAGCGUGGCAAAGUGGCUGAGGCUAGACUGCC [G7C U34A]: the self-cleavage is 0.05.

For GGCAGAUCUCGACACAGCGUGGCAAAGUGGCUGUGGCUAGACUGCC [G7U A11G], the self-cleavage was determined as 0.03.

Regarding GGCAGAUCUCCACACAGCGUGGCAAAGUGGCUGUGGCUAGACUGCC [G7U A11C], the self-cleavage was 0.02.

With GGCAGAUCUCUACACAGCGUGGCAAAGUGGCUGUGGCUAGACUGCC [G7U A11U], the self-cleavage turned out to be 0.04.

On to GGCAGACCUCAACACAGCGUGGCAAAGUGGCUGUGGCUAAACUGCC [G7C G40A], for which the self-cleavage came to 0.13.

Take GGCAGACCUCAACACAGCGUGGCAAAGUGGCUGUGGCUACACUGCC [G7C G40C]: the self-cleavage came to 0.05.

On to GGCAGACCUCAACACAGCGUGGCAAAGUGGCUGUGGCUAUACUGCC [G7C G40U], for which the self-cleavage came to 0.26.
